# System: Escherichia coli TOP10
# Test: shrunken log2 fold change of peptide-encoding DNA abundance (4.5 h post-induction vs induction); higher = less antimicrobial activity (less host growth inhibition)
# Conditions: time post-induction: 4.5 h; library: site-saturation at positions 5, 18, 19, 20
# 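Also: peptides expressed intracellularly from a pBAD plasmid library in pooled LB shake-flask culture, induced with 0.3% L-arabinose, DNA abundance read by NGS, three biological replicates, DESeq2 with apeglm shrinkage.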
row,Sequence,shrunken log2 fold change
1,RRIRRRPPRLPRPRPRPYPIPRP,-0.269
2,RRIRRRPPRLPRPRPRPYPPPRP,-0.176
3,RRIRRRPPRLPRPRPRPYRFPRP,-0.15
4,RRIRRRPPRLPRPRPRPYRSPRP,-0.0969
5,RRIRRRPPRLPRPRPRPYVAPRP,-0.361
6,RRIRRRPPRLPRPRPRPYWHPRP,-0.484
7,RRIRRRPPRLPRPRPRPYWPPRP,-0.377
8,RRIRRRPPRLPRPRPRPYYKPRP,-0.677
9,RRIRSRPPRLPRPRPRPAAPPRP,0.66
10,RRIRSRPPRLPRPRPRPAARPRP,0.247
11,RRIRSRPPRLPRPRPRPAAWPRP,0.226
12,RRIRSRPPRLPRPRPRPACNPRP,-0.285
13,RRIRSRPPRLPRPRPRPACSPRP,0.147
14,RRIRSRPPRLPRPRPRPADLPRP,0.274
15,RRIRSRPPRLPRPRPRPADPPRP,0.0724
16,RRIRSRPPRLPRPRPRPAFHPRP,-0.0038
17,RRIRSRPPRLPRPRPRPAGLPRP,-0.0231
18,RRIRSRPPRLPRPRPRPAHLPRP,0.27
19,RRIRSRPPRLPRPRPRPAHTPRP,-0.379
20,RRIRSRPPRLPRPRPRPALRPRP,0.169
21,RRIRSRPPRLPRPRPRPAMVPRP,-0.274
22,RRIRSRPPRLPRPRPRPANGPRP,-0.0714
23,RRIRSRPPRLPRPRPRPANMPRP,-0.289
24,RRIRSRPPRLPRPRPRPANNPRP,-0.367
25,RRIRSRPPRLPRPRPRPAPWPRP,0.528

row,Sequence,shrunken log2 fold change
1,RRIRSRPPRLPRPRPRPAQCPRP,0.0899
2,RRIRSRPPRLPRPRPRPAQSPRP,0.234
3,RRIRSRPPRLPRPRPRPARIPRP,0.0694
4,RRIRSRPPRLPRPRPRPARRPRP,0.0588
5,RRIRSRPPRLPRPRPRPARYPRP,-0.0163
6,RRIRSRPPRLPRPRPRPATHPRP,-0.0838
7,RRIRSRPPRLPRPRPRPAVTPRP,0.293
8,RRIRSRPPRLPRPRPRPAWKPRP,0.186
9,RRIRSRPPRLPRPRPRPAWTPRP,0.0161
10,RRIRSRPPRLPRPRPRPCAGPRP,-0.0708
11,RRIRSRPPRLPRPRPRPCCFPRP,-0.0695
12,RRIRSRPPRLPRPRPRPCDRPRP,-0.00911
13,RRIRSRPPRLPRPRPRPCDWPRP,0.0154
14,RRIRSRPPRLPRPRPRPCEHPRP,0.135
15,RRIRSRPPRLPRPRPRPCFCPRP,-0.489
16,RRIRSRPPRLPRPRPRPCGIPRP,-0.0619
17,RRIRSRPPRLPRPRPRPCGPPRP,0.118
18,RRIRSRPPRLPRPRPRPCHTPRP,0.00383
19,RRIRSRPPRLPRPRPRPCIWPRP,-0.121
20,RRIRSRPPRLPRPRPRPCLAPRP,0.0253
21,RRIRSRPPRLPRPRPRPCMEPRP,-0.292
22,RRIRSRPPRLPRPRPRPCMPPRP,-0.375
23,RRIRSRPPRLPRPRPRPCNFPRP,-0.702
24,RRIRSRPPRLPRPRPRPCNRPRP,0.0326
25,RRIRSRPPRLPRPRPRPCNYPRP,-0.455

row,Sequence,shrunken log2 fold change
1,RRIRSRPPRLPRPRPRPCPAPRP,-0.271
2,RRIRSRPPRLPRPRPRPCPDPRP,-0.388
3,RRIRSRPPRLPRPRPRPCPPPRP,-0.244
4,RRIRSRPPRLPRPRPRPCQHPRP,-0.128
5,RRIRSRPPRLPRPRPRPCREPRP,0.157
6,RRIRSRPPRLPRPRPRPCRPPRP,-0.584
7,RRIRSRPPRLPRPRPRPCSGPRP,-0.0317
8,RRIRSRPPRLPRPRPRPCTIPRP,-0.148
9,RRIRSRPPRLPRPRPRPCTLPRP,-0.399
10,RRIRSRPPRLPRPRPRPCTWPRP,-0.125
11,RRIRSRPPRLPRPRPRPCYDPRP,-0.438
12,RRIRSRPPRLPRPRPRPCYVPRP,-0.338
13,RRIRSRPPRLPRPRPRPDEPPRP,0.0784
14,RRIRSRPPRLPRPRPRPDERPRP,0.1
15,RRIRSRPPRLPRPRPRPDFPPRP,0.0768
16,RRIRSRPPRLPRPRPRPDFWPRP,0.506
17,RRIRSRPPRLPRPRPRPDHKPRP,-0.18
18,RRIRSRPPRLPRPRPRPDINPRP,-0.253
19,RRIRSRPPRLPRPRPRPDKLPRP,-0.266
20,RRIRSRPPRLPRPRPRPDKMPRP,-0.15
21,RRIRSRPPRLPRPRPRPDKSPRP,-0.2
22,RRIRSRPPRLPRPRPRPDLPPRP,-0.246
23,RRIRSRPPRLPRPRPRPDLQPRP,-0.193
24,RRIRSRPPRLPRPRPRPDLVPRP,0.0452
25,RRIRSRPPRLPRPRPRPDNGPRP,-0.232

row,Sequence,shrunken log2 fold change
1,RRIRSRPPRLPRPRPRPDQFPRP,-0.167
2,RRIRSRPPRLPRPRPRPDQSPRP,0.217
3,RRIRSRPPRLPRPRPRPDRSPRP,-0.0187
4,RRIRSRPPRLPRPRPRPDTWPRP,-0.0193
5,RRIRSRPPRLPRPRPRPDVDPRP,0.0112
6,RRIRSRPPRLPRPRPRPDVFPRP,-0.098
7,RRIRSRPPRLPRPRPRPDYEPRP,-0.221
8,RRIRSRPPRLPRPRPRPDYRPRP,-0.0371
9,RRIRSRPPRLPRPRPRPDYSPRP,-0.464
10,RRIRSRPPRLPRPRPRPDYWPRP,0.0977
11,RRIRSRPPRLPRPRPRPDYYPRP,-0.831
12,RRIRSRPPRLPRPRPRPECAPRP,0.784
13,RRIRSRPPRLPRPRPRPECHPRP,0.411
14,RRIRSRPPRLPRPRPRPECMPRP,0.00574
15,RRIRSRPPRLPRPRPRPEDNPRP,0.24
16,RRIRSRPPRLPRPRPRPEEDPRP,-0.00277
17,RRIRSRPPRLPRPRPRPEFIPRP,0.162
18,RRIRSRPPRLPRPRPRPEFVPRP,0.00503
19,RRIRSRPPRLPRPRPRPEGFPRP,0.272
20,RRIRSRPPRLPRPRPRPEGMPRP,0.392
21,RRIRSRPPRLPRPRPRPEHHPRP,-0.153
22,RRIRSRPPRLPRPRPRPEILPRP,-0.0652
23,RRIRSRPPRLPRPRPRPEINPRP,0.0112
24,RRIRSRPPRLPRPRPRPEKAPRP,-0.193
25,RRIRSRPPRLPRPRPRPEKWPRP,0.0431

row,Sequence,shrunken log2 fold change
1,RRIRSRPPRLPRPRPRPELAPRP,0.929
2,RRIRSRPPRLPRPRPRPELMPRP,0.469
3,RRIRSRPPRLPRPRPRPENFPRP,-0.0342
4,RRIRSRPPRLPRPRPRPEPCPRP,0.108
5,RRIRSRPPRLPRPRPRPEQDPRP,0.206
6,RRIRSRPPRLPRPRPRPEQSPRP,0.22
7,RRIRSRPPRLPRPRPRPERNPRP,-0.098
8,RRIRSRPPRLPRPRPRPESCPRP,0.181
9,RRIRSRPPRLPRPRPRPETLPRP,0.0893
10,RRIRSRPPRLPRPRPRPEYDPRP,0.0801
11,RRIRSRPPRLPRPRPRPEYEPRP,-0.0387
12,RRIRSRPPRLPRPRPRPFACPRP,-0.655
13,RRIRSRPPRLPRPRPRPFAYPRP,-0.348
14,RRIRSRPPRLPRPRPRPFCHPRP,-0.162
15,RRIRSRPPRLPRPRPRPFDGPRP,0.0042
16,RRIRSRPPRLPRPRPRPFFKPRP,-0.192
17,RRIRSRPPRLPRPRPRPFHEPRP,-0.263
18,RRIRSRPPRLPRPRPRPFIFPRP,-0.343
19,RRIRSRPPRLPRPRPRPFIIPRP,-0.34
20,RRIRSRPPRLPRPRPRPFKHPRP,-0.195
21,RRIRSRPPRLPRPRPRPFMTPRP,-0.328
22,RRIRSRPPRLPRPRPRPFMYPRP,-0.513
23,RRIRSRPPRLPRPRPRPFNCPRP,-0.441
24,RRIRSRPPRLPRPRPRPFNRPRP,-0.363
25,RRIRSRPPRLPRPRPRPFQKPRP,-0.00295

row,Sequence,shrunken log2 fold change
1,RRIRSRPPRLPRPRPRPFQRPRP,0.101
2,RRIRSRPPRLPRPRPRPFRVPRP,0.166
3,RRIRSRPPRLPRPRPRPFTGPRP,-0.261
4,RRIRSRPPRLPRPRPRPFTKPRP,-0.202
5,RRIRSRPPRLPRPRPRPFTQPRP,-0.403
6,RRIRSRPPRLPRPRPRPFTRPRP,0.0337
7,RRIRSRPPRLPRPRPRPFTSPRP,0.0532
8,RRIRSRPPRLPRPRPRPFTVPRP,-0.0157
9,RRIRSRPPRLPRPRPRPFTWPRP,-0.24
10,RRIRSRPPRLPRPRPRPGCLPRP,0.0602
11,RRIRSRPPRLPRPRPRPGDRPRP,-0.267
12,RRIRSRPPRLPRPRPRPGDVPRP,0.204
13,RRIRSRPPRLPRPRPRPGENPRP,0.894
14,RRIRSRPPRLPRPRPRPGGEPRP,0.585
15,RRIRSRPPRLPRPRPRPGHEPRP,0.101
16,RRIRSRPPRLPRPRPRPGHPPRP,0.0456
17,RRIRSRPPRLPRPRPRPGIGPRP,1.62
18,RRIRSRPPRLPRPRPRPGIIPRP,-0.454
19,RRIRSRPPRLPRPRPRPGMQPRP,-0.394
20,RRIRSRPPRLPRPRPRPGMYPRP,0.0605
21,RRIRSRPPRLPRPRPRPGNFPRP,0.00825
22,RRIRSRPPRLPRPRPRPGNTPRP,-0.472
23,RRIRSRPPRLPRPRPRPGNWPRP,-0.0906
24,RRIRSRPPRLPRPRPRPGPCPRP,0.0781
25,RRIRSRPPRLPRPRPRPGPFPRP,0.00218
